Results reported in patent US20200317736A1.

Target: Multidrug transporter EmrE (Escherichia coli (strain K12)) (Escherichia coli (strain K12)) (UniProt P23895)
Experiment: cell-based or functional assay

UniProt P23895, sequence (P23895 whole entry): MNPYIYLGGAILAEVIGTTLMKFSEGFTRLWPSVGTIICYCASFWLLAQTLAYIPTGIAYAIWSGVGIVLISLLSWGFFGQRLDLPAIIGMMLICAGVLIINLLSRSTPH

Row | Substance | inhibition of ethidium bromide efflux from E. coli K12 cells (fluorescence decay), peptide 4 uM
1 | I89-A96 (peptide) | 26%
2 | M92-L99 (peptide) | 68%
3 | A87-I94 (peptide) | 60%
